Binding result and Kd data for 16 molecules are collected here from PMC8560851 (Scientific Reports, 2021).

T1: VEGF antigen as co-crystallised with the bH1-Fab H3 variants (Homo sapiens, VEGF-A residues 1-110 of …)
T1 construct: VEGF-A, human
T1 chain: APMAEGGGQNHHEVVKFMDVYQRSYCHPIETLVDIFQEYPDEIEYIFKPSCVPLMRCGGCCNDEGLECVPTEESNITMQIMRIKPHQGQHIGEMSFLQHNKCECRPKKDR

B1: bH1 Fab H3 variant 14_0130 (Fab, V domains shown)
VH: EVQLVESGGGLVQPGGSLRLSCAASGFNIKDTYIHWVRQAPGKGLEWVARIYPTNGYTRYADSVKGRFTISADTSKNTAYLQMNSLRAEDTAVYYCAKLGIGYYYYGMDVWGQGTLVTVSS
VL: DIQMTQSPSSLSASVGDRVTITCRASQDIPRSISGYVAWYQQKPGKAPKLLIYWGSYLYSGVPSRFSGSGSGTDFTLTISSLQPEDFATYYCQQHYTTPPTFGQGTKVEIK
notes: also in PDB 7KF1; also called design 14_0130; source: CHO-3E7, co-transfected, purified from supernatant (HisTrap IMAC, SEC Superdex-200)
B2: bH1 Fab H3 variant 16_0325 (Fab, V domains shown)
VH: EVQLVESGGGLVQPGGSLRLSCAASGFNIKDTYIHWVRQAPGKGLEWVARIYPTNGYTRYADSVKGRFTISADTSKNTAYLQMNSLRAEDTAVYYCARGGAVAGTGVYYFDYWGQGTLVTVSS
VL: B1 VL
notes: also in PDB 7KEZ; also called design 16_0325; source: CHO-3E7, co-transfected, purified from supernatant (HisTrap IMAC, SEC Superdex-200)
B3: bH1 Fab H3 variant 13_0346 (Fab, V domains shown)
VH: EVQLVESGGGLVQPGGSLRLSCAASGFNIKDTYIHWVRQAPGKGLEWVARIYPTNGYTRYADSVKGRFTISADTSKNTAYLQMNSLRAEDTAVYYCARGGSFYYYYMDVWGQGTLVTVSS
VL: B1 VL
notes: also in PDB 7KF0; also called design 13_0346; source: CHO-3E7, co-transfected, purified from supernatant (HisTrap IMAC, SEC Superdex-200)
B4: bH1 Fab H3 variant 12_0327 (Fab, V domains shown)
VH: EVQLVESGGGLVQPGGSLRLSCAASGFNIKDTYIHWVRQAPGKGLEWVARIYPTNGYTRYADSVKGRFTISADTSKNTAYLQMNSLRAEDTAVYYCARGRKYSSSFDYWGQGTLVTVSS
VL: B1 VL
notes: also in PDB 7KF2; also called design 12_0327; source: CHO-3E7, co-transfected, purified from supernatant (HisTrap IMAC, SEC Superdex-200)
B5: bH1 Fab H3 variant 14_0490 (Fab, V domains shown)
VH: B1 VH with K98R, L99G, G100N, I101E, G102A, Y103G
VL: B1 VL
notes: source: CHO-3E7, co-transfected, purified from supernatant (HisTrap IMAC, SEC Superdex-200)
B6: bH1 Fab H3 variant 14_0822 (Fab, V domains shown)
VH: EVQLVESGGGLVQPGGSLRLSCAASGFNIKDTYIHWVRQAPGKGLEWVARIYPTNGYTRYADSVKGRFTISADTSKNTAYLQMNSLRAEDTAVYYCGRSGPRLGMYYFDFWGQGTLVTVSS
VL: B1 VL
notes: as for B5
B7: bH1 Fab H3 variant 14_0905 (Fab, V domains shown)
VH: B1 VH with A97V, K98R, L99G, I101Y, G102L, Y103R, Y104D
VL: B1 VL
notes: as for B5
B8: bH1 Fab H3 variant 14_0129 (Fab, V domains shown)
VH: B1 VH with I101G, G102Q, Y103G, Y104S, G107H, M108F, V110Y
VL: B1 VL
notes: as for B5
B9: parental bH1 Fab (Fab, V domains shown)
VH: not shown
VL: B1 VL
notes: heavy chain of the bH1 Fab; light chain of the bH1 Fab; also called bH1 antibody; parental antibody; source: CHO-3E7, co-transfected, purified from supernatant (HisTrap IMAC, SEC Superdex-200)
B10: bH1 Fab H3 variant 15_0485 (Fab, V domains shown)
VH: EVQLVESGGGLVQPGGSLRLSCAASGFNIKDTYIHWVRQAPGKGLEWVARIYPTNGYTRYADSVKGRFTISADTSKNTAYLQMNSLRAEDTAVYYCARHGVRGYYYYYMDVWGQGTLVTVSS
VL: B1 VL
notes: as for B5
B11: bH1 Fab H3 variant 14_0688 (Fab, V domains shown)
VH: B6 VH with G97A, P101R, R102D, L103A, G104Y, M105N, F110S
VL: B1 VL
notes: as for B5
B12: bH1 Fab H3 variant 14_0480 (Fab, V domains shown)
VH: B6 VH with G97A, S99G, G100L, P101E, L103S, M105N, F108L, F110Y
VL: B1 VL
notes: as for B5
B13: bH1 Fab H3 variant 14_0622 (Fab, V domains shown)
VH: B6 VH with G97A, S99N, P101G, R102D, L103S, G104Y, M105S, Y106G, D109Q, F110H
VL: B1 VL
notes: as for B5
B14: bH1 Fab H3 variant 16_0460 (Fab, V domains shown)
VH: B2 VH with G99P, G100S, A101G, V102G, A103S, G104R, T105S, G106W, V107L
VL: B1 VL
notes: also called design 16_0460; source: CHO-3E7, co-transfected, purified from supernatant (HisTrap IMAC, SEC Superdex-200)
B15: bH1 Fab H3 variant 14_0472 (Fab, V domains shown)
VH: B6 VH with G97A, S99G, G100I, P101A, R102V, L103A, M105A, F110Y
VL: B1 VL
notes: as for B5
B16: bH1 Fab H3 variant 16_0102 (Fab, V domains shown)
VH: EVQLVESGGGLVQPGGSLRLSCAASGFNIKDTYIHWVRQAPGKGLEWVARIYPTNGYTRYADSVKGRFTISADTSKNTAYLQMNSLRAEDTAVYYCAKGWEGTTVTLTPVDYWGQGTLVTVSS
VL: B1 VL
notes: as for B5

Where a chain is given by its changes, count along the chain named.

T2 sequence (P15692 other isoform, or with tags, fused parts or gaps): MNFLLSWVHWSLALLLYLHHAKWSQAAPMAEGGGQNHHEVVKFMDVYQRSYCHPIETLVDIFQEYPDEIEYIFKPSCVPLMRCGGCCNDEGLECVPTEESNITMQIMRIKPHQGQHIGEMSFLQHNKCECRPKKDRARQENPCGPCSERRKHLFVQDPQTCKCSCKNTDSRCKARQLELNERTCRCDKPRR

One experiment addresses T1, VEGF antigen as co-crystallised with …. Put plainly: crystal structure; co-crystallization of bH1-Fab H3 variants with the VEGF antigen and X-ray diffraction; methods in Shi et al. (in preparation). The following applies: both partners purified.
Regarding B1, the binding result was “binds”.
On the same count and under the same terms, to B2 belongs “binds”.
Still for that read-out and setting: to B3 belongs “binds”.
On the same count and under the same terms, to B4 belongs “binds”.

The next experiment has as its target T2, Full-length isoform 165 of human VEGF-A (Homo sapiens, VEGF-A isoform 165, UniProt P15692-4).
T2 construct: VEGF-A isoform 165, human; Immobilised by amine coupling for SPR; Made in HEK cells, so probably the secreted 165-residue form without signal peptide (surmise); source: HEK, recombinant, purified
The experiment is described as follows: SPR; Biacore T200, 25 °C, PBS with 0.05% Tween 20 and 3.4 mM EDTA; VEGF-A amine-coupled to a CM-5 chip; Fab injected in single cycle kinetics with five increasing concentrations; double referenced; fit to a 1:1 Langmuir binding model. The following applies: both partners purified.
Molecule B1 displayed a dissociation constant (Kd) of 2.8 µM.
In turn, B5 had a Kd of 3.59 µM.
With B6, the Kd was over 50 µM and the binding result is “no binding (tested: > 50,000 nM)”.
In turn, B7 came in with an equilibrium dissociation constant (Kd) of 5 µM. This lies in the single-digit micromolar range.
B8: binding was characterised by a dissociation constant (Kd) of 3.48 µM.
Same read-out and setting: to B3 belongs 0.08 µM; to B9, 0.1 µM; to B10, 0.31 µM.
B11 yielded a Kd of 3.6 µM.
B12 showed a Kd of 2.72 µM.
Molecule B13 came in with a Kd of 4.97 µM. This Kd lies about 1.8-fold higher than the previous one.
The same measure, in the same setting: the figure for B4 is 1.6 µM; for B14 it is 4.5 µM; for B15 it is 59 µM.
Still for that read-out and setting: to B16 belongs 50 µM.
